Source: the DeepSol protein solubility set

Test: soluble on expression in E. coli; label from the status in PepcDB or PDB records

| Sequence | soluble on expression in E. coli |
| --- | --- |
| MLRSTVIVTAHRRKAFIKDAIESVMENSLKPTEIIVVKNFKDYQIDSFLETYHVKNIYTDDETLGGKISLGIYQSSGDILFFLDDDDLFSKDKIREVIYKFSKYDIGFYHNAQEVIHNKLTGSNLSTDNQRFMYYTSIDTRRLKELLYKFKAGFNGSSIVISRDLAMRCVDLLKNVNISVDTFLLFCAVENNLPIMIDFRKLTYYRIIMSQNSNTEVNDKLFKMLYEDALYFKQIFSSKALRDFIEMSIIQHDFLYKIISKKEISKRDALISMVKMLRYSLKYPNKWNFFLQGLSLLSVFSAEKSRSLYLKKVRSNSMLSILEHHHHHH | soluble |
| MGSDKIHHHHHHMDDAMVSAVTCGAVMAFDRNIWIEKFLENSVPSFPCPHCSRGVLGFDGKSFWKEEPKHSKDAHAHDDWDPTWIEERFVMFLRCGVAKCGEVVAVSGNIEVEEVVDEDEGYDFASVLYPTSLVPAPPIIQMTDGTPDEVAGELSLAFQLFWADLGASATKIRTSVERLMDHFKVARYSRTKGKLKPIPLYNRIEAFIKANGKVVHQDHLHALRVVGNLGTHKNSLTRSDILEAFQVYEHALDELIGKKSASIAKLARKLKKK | not soluble |
| MGSDKIHHHHHHMTMPVPHAGPTPLCSNRMQVHSITQETPDVWTISLVNHDFYPYQPGQYALVSIANSEETLRAYTISSSPGLSRFITLTVRRLDDGVGSRWLTQTLKIGDYLWLSDAQGEFTCANAVSDRYLMAAAGCGVTPIMSMCRWLLANKPQIDIHIIFNVRNPQQVIFASEWQDLVQRYPQQLHLTLMAEFDAAPGFLAGRISGDLLVERVPDITNRTVMTCGPAPYMNQIETLSQQLGVASNRIFKEQFRPTDEVVDEDADQITLTISRPLKNLRVPVGISLLAALEANKVHVLAACRAGVCGSCKTRVLSGKYTTTSTMTLTPAEIEQGYVLACSCQLQGDTVLA | not soluble |
| MILIGDSGSTKTDWCIAKEGKSLGRFQTSGINPFQQDRNEIDTALRSEVLPAIGQKASSIRAVYFYGAGCTPAKAPMLNEALDSMLPHCDRIEVAGDMLGAARALCGDSEGIACILGTGSNSCLFDGREIKANVSPLGYILGDEGSGAVLGRLFIGSLLKGQMPEGLCEAFLQEYGLTSADIIESVYRKPFPNRFLAGFSPFIAQHLDIPAVYSLVQNSFDDFLVRNVLRYNRPDLPLHFIGSVAFHYREVLSSVIKKRGLTLGSVLQSPMEGLIQYHHNNHVLEHHHHHH | soluble |
| MGDGAVKQGFLYLQQQQTFGKKWRRFGASLYGGSDCALARLELQEGPEKPRRCEAARKVIRLSDCLRVAEAGGEASSPRDTSAFFLETKERLYLLAAPAAERGDWVQAICLLAF | soluble |
| GMDDETLRLQFGHLIRILPTLLEFEKKGYEPSLAEIVKASGVSEKTFFMGLKDRLIRAGLVKEETLSYRVKTLKLTEKGRRLAECLEKCRDVLGS | soluble |
| EVLRVQDKYFHIKCFVCKACGCDLAEGGFFVRQGEYICTLDYQRLYGTRCFSCDQFIEGEVVSALGKTYHPDCFVCAVCRLPFPPGDRVTFNGKECMCQKCSLPVSVGSSAHLSQGLRSCGGCGTEIKNGQALVALDKHWHLGCFKCKSCGKLLNAEYISKDGLPYCEADYHAKFGIRCDSCEKYITGRVLEAGEKHYHPSCALCVRCGQMFAEGEEMYLQGSSIWHPACRQAARTEDRNKETRTSSESIISVPASSTSGSPSRVIYAKLGGEILDYRDLAALPKSKAIYDIDRPDMISYSPYISHSAGDRQSYGEGDQDDRSYKQCRTSSPSSTGSVSLGRYTPTSRSPQHYSRPGSESGRSTPSLSVLSDSKPPPSTYQQAPRHFHVPDTGVKDNIYRKPPIYRQHAARRSDGEDGSLDQDNRKKSSWLMLKGDADTRTNSPDLDTQSLSHSSGTDRDPLQRMAGDSFHSQYKIYPYDSLIVTNRIRVKLPKDVDRTRLERHLSPEEFQEVFGMSIEEFDRLALWKRNDLKKKALLF | soluble |
| MTPKRALISLTSYHGPFYKDGAKTGVFVVEILRSFDTFEKHGFEVDFVSETGGFGWDEHYLPKSFIGGEDKMNFETKNSAFNKALARIKTANEVNASDYKVFFASAGHGALFDYPKAKNLQDIASKIYANGGVIAAICHGPLLFDGLIDIKTTRPLIEGKAITGFPLEGEIALGVDDILRSRKLTTVERVANKNGAKYLAPIHPWDDYSITDGKLVTGVNANSSYSTTIRAINALYSVEHHHHH | soluble |
| MSQLMQLKDVAESTRLGPLSGEVSAGEILHLVGPNGAGKSTLLARMAGLTSGEGSIRFGGAPLEAWATATLAQHRAYLAQQQNPPFAMPVWHYLTLHQPDKTRTGQLNEVADMLGLGDKLGRSVNQLSGGEWQRVRLAAVVLQIHPDANPVGQLLLLDEPMNSLDVAQQNALDRVLHHLCQAGIAIVMSSHDLNHTLRHAHKAWLLKRGKLIACGRREEVLTPSYLAQAYGLRFRRLDVEGHPMLISAT | not soluble |
| CIHSLKSEAIFFERTANFDGNTREKIIAMHVGYRIYARMEPVLSTCAIVAKTPWVLEKASPERLNELNRLEEEVISGADALVNNAVECGDLKFSPAIGADAIVFANWSIAFGSNALAQNASNSRCIQRIQDPFSVLHNANMLLDGLGWAPLSTEWDYRKTWRRVEQELFSEEIAYLETVNR | not soluble |
| MVRVEDSNGADTDTNPEGESSGYVRLAGNGLPGGEQQQASSSGVAAAPSVDSSPGRSVPLAIASSSSPANVANNQYAIPVDENGHRYVGLVNQAMTCYLNSLVQSLYMTPEFRNAMYDWEYVQQPAHIKEQRKKAEQSIPCQLQKLFLLLQTSENDSLETKDLTQSFGWTSNEAYDQHDVQELCRLMFDALEHKWKGTEHEKLIQDLYRGTMEDFVACLKCGRESVKTDYFLDLPLAVKPFGAIHAYKSVEEALTAFVQPELLDGSNQYMCENCKSKQDAHKGLRITQFPYLLTIQLKRFDFDYNTMHRIKLNDKMTFPDVLDLNDYVNKEKRSTTSSAWQQIGKNKSENEEDDMELGSPNPKRCTPGVQSPNRYQGSENVCVGQPIDHAAVDDIVKTSGDNVYELFSVMVHSGNAAGGHYFAYIKNLDQDRWYVFNDTRVDFATPLEIEKSFGGHPSGWNQSNTNAYMLMYRRIDPKRNARFILSNQLPQHIKDSQEKWKRLEREAEDERLRKLSLIQVYVTINYPFPSVVTLPDKKQLDLTPQKYQIAEDFGEYKTEISREMPIKNVFNHAFEFFNERARAYNLPFTKNSARLIYVEHGSLMMDFKSKADMDKKLRSVFNVNHGEPGSMYGVHFILDVRIASSFFPVDIKNKITIKVQRVDIGKKTTANELIVVVDANEKMIKVKSWIGGQFRDDIHGVLNARVVLEVASSRCEFMMIDVSHNATEFGSLIQQYVGHTTPTLYYDGGLNTMVTKESQEATLADRKLPFDKSVMYHILDRKCFSTMVKVRLPSQEEIEKAASTKNAYQGPTWAETIAIMKEEDRLWNEPRAAVEVMSTVSRTDTTDHALVADTDDEPIPSGRGSTASMRSVSMDDIDADIGISGSLCNNTPQMSPCVSEGDDADESQLDGKSQLMSDYMQKTSPDFYYNRDPQNHLNKNLKIALGDETPSESLSAVSSGQSTLVPSTSNQALSSMTRSDEAVDGKIVTVFSHENFHKLDVDSRMRVLEFKKWVAEQLEMDKDQFVIVKHASDDGSDSGYEANFMDDETVSGAFQSCFISIKLRAPLKSDEKMMQIILFDILENLRENWKPLFELPVSQSTVIGDVLLQCLRMYKEVYGEELTPKMVRLRELGGSGVGTGRAVLNPNDTLEKRSYNWCSHLYLQIITDEAMIGKPGEPIMVRRFRPSTVEVNPTHEVLVDANAENPVVSFVEALSKISGIPVERLAITDLKEFNWQKWPYLKSRLDMLENKVNFTKDLQVTYPLPREFLDKVGSRVLYYKDSDEEAKVLSEDERKQIKIKENGQSANANRRKERPLRIQMSSVCEA | not soluble |
| MKAPSYHVVRGDIATATEGVIINAANSKGQPGGGVCGALYKKFPESFDLQPIEVGKARLVKGAAKHIIHAVGPNFNKVSEVEGDKQLAEAYESIAKIVNDNNYKSVAIPLLSTGIFSGNKDRLTQSLNHLLTALDTTDADVAIYCRDKKWEMTLKEAVARREHHHHHH | soluble |
| GPGSMSLPCPSSSSPLLGSITSGVRSPSRGPVQQQQLLHQRHASMRLRLHKDGSICACPEKSGGGVSQACAPPLPATSAFARGKEEPSAKRHHAEPSSCPGPGGDSSSVDRSAAATVVTIAAPLLSIPNPSSRAAPSPFRFLCTSVGGCPVVGAKDARVHLPDSSARCDVSGSVAPRDLSTTSAHSKAHSTAAVGRASPSSGVVSPPLSATYPSLVSASHGARVVCSHPQSASASTVPGATIDTSAPSPVPSPPHRIHQHELRPADFRREEVLGEGSYSIVTLATHRASGLSFALKEIDRSRLRWRPLEAQLRWEINLQRTLRHPHIVRLYSYFITPDCISLVLEYCSGGTLLSRLRAAPQYRLSERQASRYTRHVAKALVHLHGLGVAHRDLKLENVLIDADGIAKLADFGWSRSVVHPLPSSKSAAAAQTAGDRNDAPCSSAEHNTSNEDPTEGVAEGRRTVCGTLDYLSPEMVSGQAHSAKTDVWSLGVMLAEMLTGTPPFYTESTQETLYAIQRLPPNLTGLHPKGHGPGLTGSGASTSASVCLILDEPVALSAGALSLIHAMLQKDPSARPTMPEVLGHPWLQKKKLARKS | not soluble |
| MGSDKIHHHHHHMKEDSSLTPQEVADLLKITKYTVYEMVKRGELPAYRIGRKIRIEQRDVDAYIKQGKKLKYKDIDTLEASPRTQAARQDYLSTSPGLVICGQDLLLDILGRHLENHSQGCRAFRHNIGSFAGLLQLYQGESDMAGVHLWDSDSESYNIPYVRRMVPGIPTLIIHLAMRQQGFYVARSNPLGIKGWADLTIPGLRFINREPGCGTRVLLDEHLYQMKLDRRKINGYEREETSHLAVASAVARGTADLALGNEKAALQVRGIEFIPLQKERYELVIRKEDLDKAEIRAVLDILNSAAFKSELEGLGDYCLEETGRIVAEI | not soluble |
| MDEEEEISVVQDMAYDYSGKRLATVSIDREICIWNKKDDWQRTYQWKAHEGPLFGVSWAHPCFGNILATGSYDKRVIIWEEPEASSSYSSSSMDKSTKGWTALAHLVDARDEVRQVQFAPPHLGLLLASGSADGYVRIYTCIDEADLHQWPLLTELDMDSPVVGMSWNPSVDSIPLIVVASHKDCRVWSMDNDTRRWTDWHLFRTSESDTADLSAVAWAPHVGRSFERIALGCEDGSILLFQFPRIQQGNKTNGHEMQPICRLNHGNERIVRLQWNMVGSILASSASDRMVRLWKALPQDGTRWNCFDVVHLNE | not soluble |
| MRLMKSYKNLKEEVWDTNRCSGCGACVAVCPVNNLYFREESPVKFECDECSCIIVPADIVEHPISAEFCKTVVYDVPCGACYDACPRIKKSAIPKPKGLGNILKAVRAKASIEIKNAQNGGVVTAILANAFDEGLIDGAIVMMDDKWTLEPESYLALSKEDVLKSAGSKYLWKGPILKALKTAVMEKKLKKLAVVGTPCVINAIYQILSSDNDLLKPFREAIRLKIALFCFETYDYSKMIKKLNEDGIEPWEVKKMDIESGKLKITLINGNTVEYKLKDVESAMRNGCKVCGDFTGLTSDISVGNVGTEKGYSTVLIRNKWGEGFFKRAVYNGYITYDENVDLEAVEKLVELKKKRVKKDLEHHHHHH | soluble |
| PLRLALSKLLVKANQPSAALSPLVHLPPMPSRDYLAMRAALAQKQKQNDIALESYQLLTQREPDNARWWLGLAIQQERALTFTAAINSYNEALGKVGISNQSQAFIRDRLTILKQLESAQ | not soluble |
| GPGSMLSTIKTRPQGPYCGDYFSIVEGRVDFPVDLDTFDISLTISGDVEECKNEPYVYDEVSGNVELTNAQDPGDCLGSILRRNQLTLMVTYHPDDDKISLDFGIAVVNLSPCP | not soluble |
